# Measurements: IntAct's records for PubMed 20153263
# B1: Protein AF-9 (Homo sapiens), P42568 (parent)
# chain: MASSCAVQVKLELGHRAQVRKKPTVEGFTHDWMVFVRGPEHSNIQHFVEKVVFHLHESFPRPKRVCKDPPYKVEESGYAGFILPIEVYFKNKEEPRKVRFDYDLFLHLEGHPPVNHLRCEKLTFNNPTEDFRRKLLKAGGDPNRSIHTSSSSSSSSSSSSSSSSSSSSSSSSSSSSSSSSSSSSSSSSSSTSFSKPHKLMKEHKEKPSKDSREHKSAFKEPSRDHNKSSKESSKKPKENKPLKEEKIVPKMAFKEPKPMSKEPKPDSNLLTITSGQDKKAPSKRPPISDSEELSAKKRKKSSSEALFKSFSSAPPLILTCSADKKQIKDKSHVKMGKVKIESETSEKKKSTLPPFDDIVDPNDSDVEENISSKSDSEQPSPASSSSSSSSSFTPSQTRQQGPLRSIMKDLHSDDNEEESDEVEDNDNDSEMERPVNRGGSRSRRVSLSDGSDSESSSASSPLHHEPPPPLLKTNNNQILEVKSPIKQSKSDKQIKNGECDKAYLDELVELHRRLMTLRERHILQQIVNLIEETGHFHITNTTFDFDLCSLDKTTVRKLQSYLETSGTS
# partner: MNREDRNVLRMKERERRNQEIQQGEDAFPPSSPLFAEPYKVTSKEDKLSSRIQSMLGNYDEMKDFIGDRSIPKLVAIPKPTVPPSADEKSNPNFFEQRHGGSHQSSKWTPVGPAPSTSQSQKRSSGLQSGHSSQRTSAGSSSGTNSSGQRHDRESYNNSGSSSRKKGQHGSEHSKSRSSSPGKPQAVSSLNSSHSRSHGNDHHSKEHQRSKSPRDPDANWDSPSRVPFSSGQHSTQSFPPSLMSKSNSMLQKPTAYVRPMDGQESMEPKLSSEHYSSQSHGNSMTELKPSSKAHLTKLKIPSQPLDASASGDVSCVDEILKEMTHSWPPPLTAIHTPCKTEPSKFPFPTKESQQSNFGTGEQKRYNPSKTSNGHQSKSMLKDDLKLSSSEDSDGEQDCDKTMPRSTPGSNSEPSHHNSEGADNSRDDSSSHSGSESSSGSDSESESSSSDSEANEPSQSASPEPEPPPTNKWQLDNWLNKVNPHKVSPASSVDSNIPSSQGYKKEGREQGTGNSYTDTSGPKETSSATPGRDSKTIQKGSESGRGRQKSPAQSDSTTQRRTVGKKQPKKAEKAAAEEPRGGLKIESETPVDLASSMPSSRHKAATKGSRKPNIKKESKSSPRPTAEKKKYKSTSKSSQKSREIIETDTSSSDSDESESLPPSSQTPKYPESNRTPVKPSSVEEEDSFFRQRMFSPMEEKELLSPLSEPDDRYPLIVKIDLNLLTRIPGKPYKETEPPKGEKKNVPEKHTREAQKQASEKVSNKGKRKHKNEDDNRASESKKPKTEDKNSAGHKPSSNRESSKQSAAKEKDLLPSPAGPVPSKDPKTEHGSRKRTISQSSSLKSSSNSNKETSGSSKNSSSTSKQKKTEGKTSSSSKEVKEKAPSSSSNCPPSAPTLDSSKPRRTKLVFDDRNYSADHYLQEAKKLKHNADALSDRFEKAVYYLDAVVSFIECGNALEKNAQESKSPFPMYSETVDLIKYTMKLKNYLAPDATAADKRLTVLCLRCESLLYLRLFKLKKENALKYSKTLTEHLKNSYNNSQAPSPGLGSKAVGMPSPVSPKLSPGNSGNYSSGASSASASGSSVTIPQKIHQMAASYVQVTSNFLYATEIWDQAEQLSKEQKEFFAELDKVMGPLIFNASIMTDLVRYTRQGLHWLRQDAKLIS
# B2: Protein AF-9 (Homo sapiens), P42568 (parent)
# chain: B1 chain
# B3: Protein ENL (Homo sapiens), Q03111 (parent)
# chain: MDNQCTVQVRLELGHRAQLRKKPTTEGFTHDWMVFVRGPEQCDIQHFVEKVVFWLHDSFPKPRRVCKEPPYKVEESGYAGFIMPIEVHFKNKEEPRKVCFTYDLFLNLEGNPPVNHLRCEKLTFNNPTTEFRYKLLRAGGVMVMPEGADTVSRPSPDYPMLPTIPLSAFSDPKKTKPSHGSKDANKESSKTSKPHKVTKEHRERPRKDSESKSSSKELEREQAKSSKDTSRKLGEGRLPKEEKAPPPKAAFKEPKMALKETKLESTSPKGGPPPPPPPPPRASSKRPATADSPKPSAKKQKKSSSKGSRSAPGTSPRTSSSSSFSDKKPAKDKSSTRGEKVKAESEPREAKKALEVEESNSEDEASFKSESAQSSPSNSSSSSDSSSDSDFEPSQNHSQGPLRSMVEDLQSEESDEDDSSSGEEAAGKTNPGRDSRLSFSDSESDNSADSSLPSREPPPPQKPPPPNSKVSGRRSPESCSKPEKILKKGTYDKAYTDELVELHRRLMALRERNVLQQIVNLIEETGHFNVTNTTFDFDLFSLDETTVRKLQSCLEAVAT
# B4: Protein ENL (Homo sapiens), Q03111 (parent)
# chain: B3 chain
# partner: B1 partner
# Variants of: B1
# Details: with aff4_human AFF4, Q9UHB7
row,effect of a mutation on the interaction,Variant
1,decreasing interaction,MASSCAVQVKLELGHRAQVRKKPTVEGFTHDWMVFVRGPEHSNIQHFVEKVVFHLHESFPRPKRVCKDPPYKVEESGYAGFILPIEVYFKNKEEPRKVRFDYDLFLHLEGHPPVNHLRCEKLTFNNPTEDFRRKLLKAGGDPNRSIHTSSSSSSSSSSSSSSSSSSSSSSSSSSSSSSSSSSSSSSSSSSTSFSKPHKLMKEHKEKPSKDSREHKSAFKEPSRDHNKSSKESSKKPKENKPLKEEKIVPKMAFKEPKPMSKEPKPDSNLLTITSGQDKKAPSKRPPISDSEELSAKKRKKSSSEALFKSFSSAPPLILTCSADKKQIKDKSHVKMGKVKIESETSEKKKSTLPPFDDIVDPNDSDVEENISSKSDSEQPSPASSSSSSSSSFTPSQTRQQGPLRSIMKDLHSDDNEEESDEVEDNDNDSEMERPVNRGGSRSRRVSLSDGSDSESSSASSPLHHEPPPPLLKTNNNQILEVKSPIKQSKSDKQIKNGECDKAYLDELVELHRRLMTLRERHILQQIVNLIEETGHFHITNTTFDFDLCSLDKTTVRKEQSYLETSGTS [L558E]

# Variants of: B2
# Details: with dot1l_human DOT1L
row,effect of a mutation on the interaction,Variant
1,decreasing interaction,MASSCAVQVKLELGHRAQVRKKPTVEGFTHDWMVFVRGPEHSNIQHFVEKVVFHLHESFPRPKRVCKDPPYKVEESGYAGFILPIEVYFKNKEEPRKVRFDYDLFLHLEGHPPVNHLRCEKLTFNNPTEDFRRKLLKAGGDPNRSIHTSSSSSSSSSSSSSSSSSSSSSSSSSSSSSSSSSSSSSSSSSSTSFSKPHKLMKEHKEKPSKDSREHKSAFKEPSRDHNKSSKESSKKPKENKPLKEEKIVPKMAFKEPKPMSKEPKPDSNLLTITSGQDKKAPSKRPPISDSEELSAKKRKKSSSEALFKSFSSAPPLILTCSADKKQIKDKSHVKMGKVKIESETSEKKKSTLPPFDDIVDPNDSDVEENISSKSDSEQPSPASSSSSSSSSFTPSQTRQQGPLRSIMKDLHSDDNEEESDEVEDNDNDSEMERPVNRGGSRSRRVSLSDGSDSESSSASSPLHHEPPPPLLKTNNNQILEVKSPIKQSKSDKQIKNGECDKAYLDELVELHRRLMTLRERHILQQIVNLIEETGHFHITNTTFDFDLCSLDKTTVRKEQSYLETSGTS [L558E]

# Variants of: B3
# Details: with dot1l_human DOT1L
row,effect of a mutation on the interaction,Variant
1,decreasing interaction,MDNQCTVQVRLELGHRAQLRKKPTTEGFTHDWMVFVRGPEQCDIQHFVEKVVFWLHDSFPKPRRVCKEPPYKVEESGYAGFIMPIEVHFKNKEEPRKVCFTYDLFLNLEGNPPVNHLRCEKLTFNNPTTEFRYKLLRAGGVMVMPEGADTVSRPSPDYPMLPTIPLSAFSDPKKTKPSHGSKDANKESSKTSKPHKVTKEHRERPRKDSESKSSSKELEREQAKSSKDTSRKLGEGRLPKEEKAPPPKAAFKEPKMALKETKLESTSPKGGPPPPPPPPPRASSKRPATADSPKPSAKKQKKSSSKGSRSAPGTSPRTSSSSSFSDKKPAKDKSSTRGEKVKAESEPREAKKALEVEESNSEDEASFKSESAQSSPSNSSSSSDSSSDSDFEPSQNHSQGPLRSMVEDLQSEESDEDDSSSGEEAAGKTNPGRDSRLSFSDSESDNSADSSLPSREPPPPQKPPPPNSKVSGRRSPESCSKPEKILKKGTYDKAYTDELVELHRRLMALRERNVLQQIVNLIEETGHFNVTNTTFDFDLFSLDETTVRKEQSCLEAVAT [L550E]

# Variants of: B4
# Details: with aff4_human AFF4, Q9UHB7
row,effect of a mutation on the interaction,Variant
1,disrupting interaction,MDNQCTVQVRLELGHRAQLRKKPTTEGFTHDWMVFVRGPEQCDIQHFVEKVVFWLHDSFPKPRRVCKEPPYKVEESGYAGFIMPIEVHFKNKEEPRKVCFTYDLFLNLEGNPPVNHLRCEKLTFNNPTTEFRYKLLRAGGVMVMPEGADTVSRPSPDYPMLPTIPLSAFSDPKKTKPSHGSKDANKESSKTSKPHKVTKEHRERPRKDSESKSSSKELEREQAKSSKDTSRKLGEGRLPKEEKAPPPKAAFKEPKMALKETKLESTSPKGGPPPPPPPPPRASSKRPATADSPKPSAKKQKKSSSKGSRSAPGTSPRTSSSSSFSDKKPAKDKSSTRGEKVKAESEPREAKKALEVEESNSEDEASFKSESAQSSPSNSSSSSDSSSDSDFEPSQNHSQGPLRSMVEDLQSEESDEDDSSSGEEAAGKTNPGRDSRLSFSDSESDNSADSSLPSREPPPPQKPPPPNSKVSGRRSPESCSKPEKILKKGTYDKAYTDELVELHRRLMALRERNVLQQIVNLIEETGHFNVTNTTFDFDLFSLDETTVRKEQSCLEAVAT [L550E]
